# Experimental data taken from the supplement of paper PMC10567573.
# B1: CDC25A (parent)
# chain: KPIVPTDGKRVIVVFHCEFSSERG
# B2: SOAT2 (parent)
# chain: SLGKQKVFIIRKSLLDELMEVQHF
# Variants of: B1
# Test: protein stability index of a GFP-peptide fusion (GPS, HEK-293T) (PSI 1-6); higher = more stable
# Details: c terminus: a fixed tail appended
# 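Also: lentivirally expressed fusions sorted by FACS into six bins by GFP to DsRed ratio, PSI derived from sequencing read proportions per bin multiplied by bin number.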
row,Variant,protein stability index
1,V13T,2.38
2,V13E,3.43
3,V13L,2.97
4,V13D,3.69
5,F19Q,2.3
6,F19D,2.41
7,F19E,2.47
8,F19M,2.05
9,F19I,1.65
10,F19V,2.19
11,G8Q,1.51
12,G8R,2.3
13,G8F,2.28
14,V11E,3.05
15,V11I,3.01
16,V11C,1.57
17,V11H,1.58
18,H16K,1.49
19,H16M,4.57
20,H16R,3.3
21,S21D,1.28
22,S21F,1.97
23,S21T,3.26

row,Variant,protein stability index
1,S21R,1.2
2,S21K,1.9
3,D7F,2.17
4,D7E,2.8
5,D7R,2
6,G24Y,2.74
7,G24N,2.29
8,G24D,2.09
9,C17S,1.85
10,C17Y,2.9
11,C17K,2.33
12,C17E,2.57
13,V4A,2.12
14,V4K,2.11
15,V4T,1.42
16,V4M,1.92
17,V4Y,2.58
18,V14I,2.56
19,V14S,2.52
20,V14C,2.57
21,S20E,1.12
22,S20V,1.7
23,S20R,3.53

row,Variant,protein stability index
1,I12N,2.99
2,I12E,2.84
3,T6Q,3.58
4,T6Y,2.19
5,T6H,2.71
6,T6I,2.31
7,T6R,2.27
8,T6G,1.97
9,T6D,1.8
10,T6S,1.86
11,F15R,3.06
12,F15Q,3.78
13,F15I,2.73
14,P2L,1.83
15,P5L,2.4
16,P5A,2.63
17,P5S,2.29
18,P5N,4.39
19,P5I,2.42
20,P5M,2.45
21,K1H,2.4
22,K1D,2.13
23,R10Y,2.95

row,Variant,protein stability index
1,R10L,3.23
2,R10P,3.09
3,R10A,1.93
4,R10W,4.02
5,R10G,2.54
6,E18Y,2.26
7,I3W,4.26
8,I3E,2.1
9,I3P,2.27
10,K9G,2.86
11,K9E,2.58
12,K9S,2.4
13,K9A,1.56
14,K9W,2.4
15,K9T,2.66
16,E22H,2.7
17,E22C,2.52
18,E22W,2.99
19,E22K,1.99
20,E22V,2.03
21,E22Y,3.49

# Variants of: B2
# Test: as above
# Details: c terminus: a fixed tail appended
row,Variant,protein stability index
1,V7S,1.74
2,V7I,3.05
3,V7Y,2.33
4,V7K,2
5,G3K,1.74
6,G3L,2.29
7,G3R,2.98
8,L2K,1.44
9,L2N,2.58
10,K4S,2.25
11,K4N,1.78
12,K4D,1.91
13,K4M,2.15
14,K4Q,1.96
15,R11P,1.78
16,R11V,2.19
17,S1I,3.6
18,S1Y,1.34
19,S1R,1.94
20,S1P,2.99
21,F24P,2.27
22,F24M,2.2
23,F24K,2.4
24,F24W,2.78
25,F24H,1.36
26,Q22W,2.77

row,Variant,protein stability index
1,H23Y,2.64
2,F8H,1.71
3,F8W,2.79
4,F8G,1.93
5,F8A,1.76
6,F8N,1.5
7,L15H,1.78
8,L15A,1.6
9,L15T,1.54
10,L15N,1.88
11,L15Y,1.52
12,L15K,3.07
13,L15S,2.23
14,E17F,2.52
15,E17M,2.7
16,E17G,2.81
17,E17K,2.17
18,E17L,2.79
19,S13F,3.49
20,I9M,2.21
21,I9P,2.1
22,K6W,2.47
23,K6M,3.33
24,K6S,2.46
25,K6D,1.67
26,K6A,2.08

row,Variant,protein stability index
1,K6P,1.96
2,L18Y,2.46
3,L18N,2.54
4,L18E,1.8
5,L18Q,2.21
6,L18C,1.95
7,I10G,1.91
8,I10Q,1.87
9,I10V,2.52
10,D16M,3.67
11,D16N,3.3
12,Q5E,2.04
13,E20Q,1.62
14,E20Y,2.9
15,E20M,2.66
16,M19I,2.25
17,L14C,1.85
18,L14S,3.11
19,L14V,2.22
20,L14Y,2.03
21,L14T,2
22,V21R,2.92
23,V21C,3.18
24,V21H,2.23
25,K12R,2.75
